# Results as given in US20120238493A1 (INDIANA UNIVERSITY RESEARCH AND TECHNOLOGY, published 2012).
# Bridges are numbered along the chain shown (N, C = ends). Where no end group is shown, it is not given here. Side-chain parts run from the residue outwards. [ ]: non-standard residue; d: D form. PEG40kDa = 40 kDa polyethylene glycol attached; Aib = CC(C)(N)C(=O)O
# T1: GIP receptor (UniProt P48546 22-466, limits assumed)
# T1 sequence (looked up): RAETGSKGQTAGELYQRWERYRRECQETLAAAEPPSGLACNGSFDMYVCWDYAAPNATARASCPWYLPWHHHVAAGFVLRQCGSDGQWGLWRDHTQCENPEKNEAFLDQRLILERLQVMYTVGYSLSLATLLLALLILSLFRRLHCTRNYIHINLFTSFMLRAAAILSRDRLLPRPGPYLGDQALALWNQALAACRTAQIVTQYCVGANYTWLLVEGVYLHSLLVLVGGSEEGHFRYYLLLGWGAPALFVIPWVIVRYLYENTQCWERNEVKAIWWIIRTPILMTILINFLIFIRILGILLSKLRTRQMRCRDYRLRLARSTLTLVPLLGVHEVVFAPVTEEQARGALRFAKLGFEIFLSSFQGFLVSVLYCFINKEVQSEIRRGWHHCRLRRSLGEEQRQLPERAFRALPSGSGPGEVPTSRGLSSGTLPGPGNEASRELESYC
# B1: mt-403 (SEQ ID NO: 12) (peptide)
# peptide: HSQGTFISDYSKYLDEIHQKEFIAWLMNT-NH2
# modifications: lactam 16-20; not fully specified (residue 2); also: AIB at position 2 and position 20 (given S and K), any further modification only
# B2: mt-398 (SEQ ID NO: 18) (peptide)
# peptide: YSQGTFTSDYSKYLDEQAAKEFIAWLMNGGPSSGAPPPS-NH2
# modifications: lactam 16-20; N-terminus assumed
# SMILES: CC[C@H](C)[C@H](NC(=O)[C@H](Cc1ccccc1)NC(=O)[C@H](CCC(=O)O)NC(=O)[C@@H]1CCCCNC(=O)CC[C@H](NC(=O)[C@H](CC(=O)O)NC(=O)[C@H](CC(C)C)NC(=O)[C@H](Cc2ccc(O)cc2)NC(=O)[C@H](CCCCN)NC(=O)[C@H](CO)NC(=O)[C@H](Cc2ccc(O)cc2)NC(=O)[C@H](CC(=O)O)NC(=O)[C@H](CO)NC(=O)[C@@H](NC(=O)[C@H](Cc2ccccc2)NC(=O)[C@@H](NC(=O)CNC(=O)[C@H](CCC(N)=O)NC(=O)[C@H](CO)NC(=O)[C@@H](N)Cc2ccc(O)cc2)[C@@H](C)O)[C@@H](C)O)C(=O)N[C@@H](CCC(N)=O)C(=O)N[C@@H](C)C(=O)N[C@@H](C)C(=O)N1)C(=O)N[C@@H](C)C(=O)N[C@@H](Cc1c[nH]c2ccccc12)C(=O)N[C@@H](CC(C)C)C(=O)N[C@@H](CCSC)C(=O)N[C@@H](CC(N)=O)C(=O)NCC(=O)NCC(=O)N1CCC[C@H]1C(=O)N[C@@H](CO)C(=O)N[C@@H](CO)C(=O)NCC(=O)N[C@@H](C)C(=O)N1CCC[C@H]1C(=O)N1CCC[C@H]1C(=O)N1CCC[C@H]1C(=O)N[C@@H](CO)C(N)=O
# B3: mt-397 (SEQ ID NO: 17) (peptide)
# peptide: YSQGTFTSDYSKYLDEIHQKEFVNWLLAQ-NH2
# modifications: staple (positions not given here); not fully specified; also: olefinic cross-link, positions not given here
# B4: mt-395 (SEQ ID NO: 15) (peptide)
# peptide: HSQGTFTSDYSKYLDEIHQKDFVNWLLAGGPSSGAPPPS-NH2
# modifications: lactam 16-20; N-terminus assumed
# SMILES: CC[C@H](C)[C@@H]1NC(=O)[C@@H](NC(=O)[C@H](CC(=O)O)NC(=O)[C@H](CC(C)C)NC(=O)[C@H](Cc2ccc(O)cc2)NC(=O)[C@H](CCCCN)NC(=O)[C@H](CO)NC(=O)[C@H](Cc2ccc(O)cc2)NC(=O)[C@H](CC(=O)O)NC(=O)[C@H](CO)NC(=O)[C@@H](NC(=O)[C@H](Cc2ccccc2)NC(=O)[C@@H](NC(=O)CNC(=O)[C@H](CCC(N)=O)NC(=O)[C@H](CO)NC(=O)[C@@H](N)Cc2c[nH]cn2)[C@@H](C)O)[C@@H](C)O)CCC(=O)NCCCC[C@@H](C(=O)N[C@@H](CC(=O)O)C(=O)N[C@@H](Cc2ccccc2)C(=O)N[C@H](C(=O)N[C@@H](CC(N)=O)C(=O)N[C@@H](Cc2c[nH]c3ccccc23)C(=O)N[C@@H](CC(C)C)C(=O)N[C@@H](CC(C)C)C(=O)N[C@@H](C)C(=O)NCC(=O)NCC(=O)N2CCC[C@H]2C(=O)N[C@@H](CO)C(=O)N[C@@H](CO)C(=O)NCC(=O)N[C@@H](C)C(=O)N2CCC[C@H]2C(=O)N2CCC[C@H]2C(=O)N2CCC[C@H]2C(=O)N[C@@H](CO)C(N)=O)C(C)C)NC(=O)[C@H](CCC(N)=O)NC(=O)[C@H](Cc2c[nH]cn2)NC1=O
# B5: mt-396 (SEQ ID NO: 16) (peptide)
# peptide: YSQGTFTSDYSKYLDEIHQKDFVNWLLAGGPSSGAPPPS-NH2
# modifications: lactam 16-20; N-terminus assumed
# SMILES: CC[C@H](C)[C@@H]1NC(=O)[C@@H](NC(=O)[C@H](CC(=O)O)NC(=O)[C@H](CC(C)C)NC(=O)[C@H](Cc2ccc(O)cc2)NC(=O)[C@H](CCCCN)NC(=O)[C@H](CO)NC(=O)[C@H](Cc2ccc(O)cc2)NC(=O)[C@H](CC(=O)O)NC(=O)[C@H](CO)NC(=O)[C@@H](NC(=O)[C@H](Cc2ccccc2)NC(=O)[C@@H](NC(=O)CNC(=O)[C@H](CCC(N)=O)NC(=O)[C@H](CO)NC(=O)[C@@H](N)Cc2ccc(O)cc2)[C@@H](C)O)[C@@H](C)O)CCC(=O)NCCCC[C@@H](C(=O)N[C@@H](CC(=O)O)C(=O)N[C@@H](Cc2ccccc2)C(=O)N[C@H](C(=O)N[C@@H](CC(N)=O)C(=O)N[C@@H](Cc2c[nH]c3ccccc23)C(=O)N[C@@H](CC(C)C)C(=O)N[C@@H](CC(C)C)C(=O)N[C@@H](C)C(=O)NCC(=O)NCC(=O)N2CCC[C@H]2C(=O)N[C@@H](CO)C(=O)N[C@@H](CO)C(=O)NCC(=O)N[C@@H](C)C(=O)N2CCC[C@H]2C(=O)N2CCC[C@H]2C(=O)N2CCC[C@H]2C(=O)N[C@@H](CO)C(N)=O)C(C)C)NC(=O)[C@H](CCC(N)=O)NC(=O)[C@H](Cc2c[nH]cn2)NC1=O
# B6: mt-218 (SEQ ID NO: 20) (peptide)
# peptide: YXEGTFISDYSIAMDKIHQQDFVNWLLAQKGKKNWLKHNITQ
# modifications: not fully specified; AIB at position 2; C-terminal amide; Glu16-Lys20 lactam in some Table 3 peptides, absent in others (which ones is not stated)
# Molecular target: T2, glucagon receptor (UniProt P47871 26-477, limits assumed)
# Assay: cell-based or functional assay
# T2 sequence (P47871 26-477 limits assumed): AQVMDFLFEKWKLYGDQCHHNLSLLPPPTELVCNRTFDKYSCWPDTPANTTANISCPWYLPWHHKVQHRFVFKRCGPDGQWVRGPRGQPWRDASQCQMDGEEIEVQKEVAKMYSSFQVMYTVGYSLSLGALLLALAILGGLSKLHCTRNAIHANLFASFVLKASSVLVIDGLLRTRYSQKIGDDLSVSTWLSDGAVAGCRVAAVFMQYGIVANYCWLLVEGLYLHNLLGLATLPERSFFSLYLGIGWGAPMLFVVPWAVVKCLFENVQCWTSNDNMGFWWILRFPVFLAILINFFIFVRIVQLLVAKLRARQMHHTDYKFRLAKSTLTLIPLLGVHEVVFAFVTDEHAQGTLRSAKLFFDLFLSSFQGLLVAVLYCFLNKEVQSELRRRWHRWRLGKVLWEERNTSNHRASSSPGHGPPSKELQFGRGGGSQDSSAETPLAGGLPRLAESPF
Binder,EC50 (cAMP reporter) [nM],relative activity (to native hormone) [%]
Y[Aib]EGTFTSDYSIYLDKQAA[Aib]EFVNWLLAGGPSSGAPPPSK-NH2 [mt-263 (SEQ ID NO: 10)],4.04,
B1,0.0077,987

# Molecular target: T3, GLP-1 receptor (UniProt P43220 24-463, limits assumed)
# Assay: cell-based or functional assay
Binder,EC50 (cAMP reporter) [pM],relative activity (to native hormone) [%]
B1,2.7,582
Y[Aib]QGTFTSDYSIYLDKKAA[Aib]EFVNWLLAGGPSSGAPPPSK-NH2 [mt-402 (SEQ ID NO: 11)],7,

# Molecular target: T1, GIP receptor
# Assay: cell-based or functional assay
Binder,EC50 (cAMP reporter) [pM],relative activity (to native hormone) [%]
Y[Aib]EGTFTSDYSIYLDKQAA[Aib]EFVNWLLAGGPSSGAPPPSK-NH2 [mt-263 (SEQ ID NO: 10)],5.4,
B1,6.1,273
Y[Aib]QGTFTSDYSIYLDKKAA[Aib]EFVNWLLAGGPSSGAPPPSK-NH2 [mt-402 (SEQ ID NO: 11)],18.5,

# Molecular target: T2, glucagon receptor
# Assay: cell-based or functional assay
# Remark: another data set of the same source
Binder,EC50 (cAMP reporter) [nM],relative activity (to native hormone) [%]
Y[Aib]EGTFTSDYSIYLDKQAA[Aib]EFVNWLLAGGPSSGAPPPSK-NH2 [mt-263 (SEQ ID NO: 10)],3.14,
B2,3.74,0.8
B3,5.35,0.56
B4,3.41,0.87
B5,2.9,1.03

# Molecular target: T3, GLP-1 receptor
# Assay: cell-based or functional assay
# Remark: another data set of the same source
Binder,EC50 (cAMP reporter) [pM],relative activity (to native hormone) [%]
B2,7.8,315
B3,8.5,288
B4,7.6,322
B5,9.3,262

# Molecular target: T1, GIP receptor
# Assay: cell-based or functional assay
# Remark: another data set of the same source
Binder,EC50 (cAMP reporter) [pM],relative activity (to native hormone) [%]
Y[Aib]EGTFTSDYSIYLDKQAA[Aib]EFVNWLLAGGPSSGAPPPSK-NH2 [mt-263 (SEQ ID NO: 10)],3.3,
B2,3.1,434
B3,2.9,470
B4,2.5,537
B5,3.4,403

# Molecular target: T2, glucagon receptor
# Assay: cell-based or functional assay
# Remark: another data set of the same source
Binder,EC50 (cAMP reporter) [nM],relative activity (to native hormone) [%]
Y[Aib]EGTFISDYSIAMDKIHQQDFVNWLLAQKGKKNWLKHNITQ-NH2 (not fully specified) [mt-217 (SEQ ID NO: 19)],13.9,0.82
Y[Aib]PGTFISDYSIAMDKIHQQDFVNWLLAQKGKKNWLKHNITQ-NH2 (not fully specified) [mt-219 (SEQ ID NO: 21)],17.6,0.65
Y[Aib]QGTFTSDYSIYLDEQAAKEFVNWLLAGGPSSGAPPPSK([Ala-Cys(PEG 40 kDa)-Ac])-NH2 (lactam 16-20) [mt-225 (SEQ ID NO: 23)],2.71,
Y[Aib]PGTFISDYSIAMDKIHQQDFVC(PEG40kDa)WLLAQKGKKNWLKHNITQ-NH2 (not fully specified) [mt-228 (SEQ ID NO: 26)],5.36,
Y[Aib]EGTFISDYSIAMDKIHQQDFVCWLLAQKGKKNWLKHNITQ-NH2 (not fully specified) [mt-220 (SEQ ID NO: 22)],9.67,1.18
Y[Aib]QGTFTSDYSIYLDEQAAKEFVNWLLAGGPSSGAPPPSK-NH2 (not fully specified) [mt-227 (SEQ ID NO: 25)],4.24,
B6,16.3,0.7
Y[Aib]PGTFISDYSIAMDKIHQQDFVCWLLAQKGKKNWLKHNITQ-NH2 (not fully specified) [mt-226 (SEQ ID NO: 24)],3.46,

# Molecular target: T3, GLP-1 receptor
# Assay: cell-based or functional assay
# Remark: another data set of the same source
Binder,EC50 (cAMP reporter) [nM],relative activity (to native hormone) [%]
Y[Aib]EGTFISDYSIAMDKIHQQDFVNWLLAQKGKKNWLKHNITQ-NH2 (not fully specified) [mt-217 (SEQ ID NO: 19)],0.222,11.3
Y[Aib]PGTFISDYSIAMDKIHQQDFVNWLLAQKGKKNWLKHNITQ-NH2 (not fully specified) [mt-219 (SEQ ID NO: 21)],0.151,16.6
Y[Aib]QGTFTSDYSIYLDEQAAKEFVNWLLAGGPSSGAPPPSK([Ala-Cys(PEG 40 kDa)-Ac])-NH2 (lactam 16-20) [mt-225 (SEQ ID NO: 23)],0.098,
Y[Aib]PGTFISDYSIAMDKIHQQDFVC(PEG40kDa)WLLAQKGKKNWLKHNITQ-NH2 (not fully specified) [mt-228 (SEQ ID NO: 26)],0.146,
Y[Aib]EGTFISDYSIAMDKIHQQDFVCWLLAQKGKKNWLKHNITQ-NH2 (not fully specified) [mt-220 (SEQ ID NO: 22)],0.18,13.9
Y[Aib]QGTFTSDYSIYLDEQAAKEFVNWLLAGGPSSGAPPPSK-NH2 (not fully specified) [mt-227 (SEQ ID NO: 25)],0.08,
B6,0.338,7.4
Y[Aib]PGTFISDYSIAMDKIHQQDFVCWLLAQKGKKNWLKHNITQ-NH2 (not fully specified) [mt-226 (SEQ ID NO: 24)],0.097,

# Molecular target: T1, GIP receptor
# Assay: cell-based or functional assay
# Remark: another data set of the same source
Binder,EC50 (cAMP reporter) [nM],relative activity (to native hormone) [%]
Y[Aib]EGTFISDYSIAMDKIHQQDFVNWLLAQKGKKNWLKHNITQ-NH2 (not fully specified) [mt-217 (SEQ ID NO: 19)],9.57,0.2
Y[Aib]PGTFISDYSIAMDKIHQQDFVNWLLAQKGKKNWLKHNITQ-NH2 (not fully specified) [mt-219 (SEQ ID NO: 21)],6.17,0.31
Y[Aib]QGTFTSDYSIYLDEQAAKEFVNWLLAGGPSSGAPPPSK([Ala-Cys(PEG 40 kDa)-Ac])-NH2 (lactam 16-20) [mt-225 (SEQ ID NO: 23)],1.9,
Y[Aib]PGTFISDYSIAMDKIHQQDFVC(PEG40kDa)WLLAQKGKKNWLKHNITQ-NH2 (not fully specified) [mt-228 (SEQ ID NO: 26)],2.27,
Y[Aib]EGTFISDYSIAMDKIHQQDFVCWLLAQKGKKNWLKHNITQ-NH2 (not fully specified) [mt-220 (SEQ ID NO: 22)],10.3,0.19
Y[Aib]QGTFTSDYSIYLDEQAAKEFVNWLLAGGPSSGAPPPSK-NH2 (not fully specified) [mt-227 (SEQ ID NO: 25)],1.32,
B6,14.3,0.13
Y[Aib]PGTFISDYSIAMDKIHQQDFVCWLLAQKGKKNWLKHNITQ-NH2 (not fully specified) [mt-226 (SEQ ID NO: 24)],1.47,
